Results from the nanobody polyreactivity screen of Harvey et al. (2022).

Assay: yeast display, Sf9 membrane polyspecificity reagent, FACS + sequencing; frameworks hold sequencing errors
In short: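 After 36–48 hours of galactose induction, yeast (Saccharomyces cerevisiae BJ5465) displaying a synthetic nanobody library were stained at 4 °C for 1 hour with 10% biotinylated, detergent-solubilized Sf9 membrane reagent. Streptavidin microbeads enriched the stained cells before FACS sorting into low and high (top ~1%) gates on anti-HA and streptavidin fluorescence. Each clone's polyreactivity label reflects its gate of origin.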

Sequence	polyreactivity (PSR sort gate)
QVQLQLSGGDLVQAGRSLRLSCAASGTIYGLTSMGWYRQAQAKEREFVAAITDGGKTNYADSVKGRFTISRDNAKNTVYLQMIRLKPEDTAVYYCAVLFSDDAYYAYWGQGTQVTVSS	low polyreactivity
QVQLVESAGGLVQAGGSLRLTCDASGSTFGYYAMGLYRQAPGKEMELVAAITSNDGSTNYADSVKGRFTISRDNAKNTVYLQMNSLKPEDTAVYYCNARYFVAVISSFDYWGQGTQVTVSS	low polyreactivity
QVQLEESGGGLVQAGGSIRLSCAASGSTFYTNAMGWYRQAPGKERELVAAISSSGDSTYYADSVKGRFTISRDTAKNTVYLQMNSLKPEDTAVYYCNADRRSYNGFRYYYWGQGTQVTVSS	low polyreactivity
QVQLVESGGGLVQAGGSLRLSCAASGSTFGYYAMGWYRQAPGKERELVATITSSGDNTYADSVKGRFTISRDNAKNTVYLQMNSLKPEDTAVYYCNARYRKSSRPVYEPYERYYWGQGTQVTVSS	high polyreactivity
QVQLVESGGRLVQAGGSLRLSCAASGPIFAPYDMGWYRQAPGKERELVAAISRSGGSTYYADSVKGRFTISRDNAKNTVYLQMNSLKPEETPVYSCAAGLFVGFDYWGQGTQVTVTS	high polyreactivity
QVQLVESGGGLVQAGGGLRLSCAASGFTFYLYVMGWYRQAPGKERELVARISRSGGTTYYADSVKGRFTISRDNAKNTVYLQMNSLKPEDTAVYYCAARRYGVPPTYDYCGQGTQVTVSS	high polyreactivity
QVQLVESGGGLVQAGGSLRLSCADSGSTFWFYAMGWYRQAPGKERELVAVISNSGSTYYADSVKGRYTISRDNAKNTVSLQMNSLKPEDTAVYYCNKDGGGDSYWYVYWGQGTQVTVSS	low polyreactivity
QVQLVESGGGLVQAGGSLRLSCAASGFILQTYAMGWYRQAPGKERELVAAITSGARTYYADSVKGRFTISRDNAKNTVYLQMNSLKPEDTAVYYCAASIWLYRYYYWGQGTQVTVSS	high polyreactivity
QVQLVESGGGLVQAGGSLRLSCAASGRTFWYYTMGWYRQAPGKERELVAAISSGGRTNYADSVKGRFTISRDNAKNTVYLQMNSLKPEYTAVYYCATSRYYKYVERDYWGQGTQVTVSS	high polyreactivity
QVQLVESGGGLVQAGGSLRLSCDASGRILIGYTMGWYRQAPGKERELVARINYSGGSTYYADSVKGRFTISRDNAKNTVYLQMNSLKPEDTAVYYCDADVRRGYYTWPPRRVYYWGQGTQVTVSS	high polyreactivity
QVQLVESGGGLVQAGGSLRLSCAASGRTFKLNAMGWYRQAPGKERELVAAISRNGGSTYYADSVKGRFTISRDNAKNTVYLQMTSLKPEDTAVYYCAAVRHGVSLAGYYWGQGTQVTVSS	high polyreactivity
QVQLVESGGGLVQAGGSLRLSCAASGSIFGGNDMGWSRQAPGKERAWVAAITATSGSTYYADSVKGRFTISRDNAKNTVYLQMNSLKPEDTAVYYCAAKPVGTYSRPHDYWGQGTQVTVSS	low polyreactivity
QVQLVESVGGLDQARGSLRLSCAASGFIYRYYPMGWYRQSPGKERELVASIDWSGGNTYYADSVKGRFTISRDKAKYTVYLQMNSLKPEDTAVYYCNRRGMDWGLGTQVTVSS	low polyreactivity
QVQLVESVGGLVQEGGSLRLSCAASGFTFAFYAMGWYRQAPGKERELVAAMTRSGGSTYYADSVKGRFTISRDNAKNTVYLQMNSLKPEDTAVYYCAAVISRWGRSTYDYWGQGTQVTVSS	high polyreactivity
QVQLVESGGGLVQAGGSLRLSCAASGRIFDGYAMGWYRQAPGKERELVAAISSRGGRTYYADSVKGRFTISRDNAKNTVYLQMNSLKPEDTAVYYCAGDDPYGEGDYWGQGTQVTVSS	low polyreactivity
QVQLVESGGGLVQAGGSLRLSCAASGRTFGSNAMGRYRQAPGKDRELVAAISVRGGRTYYADSVKGRFTISRDIAKNTGYLQMNSLKPEDTAVYYCNAVYRTYEYYWGQGTQVTVSS	high polyreactivity

Sequence	polyreactivity (PSR sort gate)
QLQLVESRRGLVHAGGSLRLSSDASGRIFLYYAMGWYRQAPVKERELVARITSSGSTYYADSVKGLFTISRDNAKNTVYLQMNSLKPEDTAVYYCAADWYWGGIVDSWGQGTQVTVSS	high polyreactivity
QVQLVESGGGLVQAGGSLRLSCAASGSIFQRNAMGWYRQAPGKERELVAAISRSGGRTYYADSVKGRFTISRDNAKNTVYLQMNSLKPEDTAVYYCAADSPYIQNRFEYWGQGTQVTVSS	high polyreactivity
QVQLVESGGGLVQAGGSLRLSCAASGRTFDHNAMGWYRQAPGKERELVAAITSRGGSTYYADSVKGRFTISRDNAKNTVYLQMNSLKPEDTAVYYCNRYKSSSYIRGDYWGQGTQVTVSS	high polyreactivity
QVQLVESGGGLVQAGGSLRLSCAASGFTFNRNAMGWYRQAPGKERELVAAITKRGGSTFYADSVKGRFTISRDNAKNTVYLQMNSLKPEDTAVYYCAASVATYFPRHYDYWGQGTQVTVSS	high polyreactivity
QVQLVESGGGLVQAGGSLRLSCAASGSIFRRYAMGWYRQAPGKERELVATITSSVCRTYYADSVKARFTISRDTAKNTVYLQMNSLKPEETAVYFCAVYVGLWGAGGKGDYWGQGTQVTVSS	low polyreactivity
QVQLQESGAGPVLAGGSLRLSCAASGTIYVRLDMGWYRQAPGKEREFVATIGSGSSTYYADSVKGSFTISRDNVKNTVYLQMNSLNPEVTAVYYCAVSAAEQSRHYYWAQGTQVTVSS	low polyreactivity
QVQLVESGGGLVQAGGSLRLSCAASGFTLYEYAMGWYRQAPGKERELVAAISSAGNTNYADSVKGRFTISRDNAKNTVYLQLNSLKPEDTAVYYCAKYRYDYTKTEGGYWGQGTQVTVSS	low polyreactivity
QVQLVESGGGLVQAGGSLRLSCAASGRIFYLYAMGWYRQAPGKERELVAAISWGGGSTYYADSVKGRFTISRDNAKNTVYLQMNSLKPEDTAVYYCAAAVTTWVEYDYWGQGTQVTVSS	low polyreactivity
QVQLVESGGGLVQAGGSLRLSCAASGFIFRYYTMGWYRQAPGKERELVARISSGGSTTYADSVKGRFTISRDNAKNTVYLQMNSLKPEDTAVYYCHARVKRWYFGNANHSPEYDYWGKGTQVTVSS	low polyreactivity
QVQLVESGGGLVQAGGSLRLSCAASGRTFIINGMGWYRQAPGKERELVAAITTSGGSTYYADSVKGRFTISRDNAKNTVYLQMNSLKPEDTAVYSCAADVFSRKYLYGDYDYWGQGTQVTVSS	high polyreactivity
QVQLVESGGGLVQAGGSLRLSCAASGRNFEKNAMGWSRQAPGKERELVASIDFRGGRTYADSVKGRFTISRDNAKNTVYLQMISLKPEDTAVYYCAKRQVGRKYVRYEYDSWGHGTQVTVSS	low polyreactivity
QVQLVESGGGLVLAGGSLRLTWAASGSIFHYYAMGWYRQAPGKERELVAAISWSGGRTYYADSVKGRFTISRDNAKNTVYLEMNSLKPEDTAVYFCAADTYPYIGGYYWGQGTQVTVSS	high polyreactivity
QVQLVESGGGLVQAGGSLRLSCAASGSTFYKNTMGWYRQAPGKERELVATISSGDSTYADSVKGRFTISRDNAKNTVYLQMNSLKPEDTAVYYCAAASDLPGTGGYDYWGPGTQVTVSS	low polyreactivity
QVQLVESGGGLVQAGGRLRLSCAASGFTFAYYAMGGNRQSPGKERELVAAISSGGGSTYYADSEKGRFTISRDNAKNTVYLQMNSQKPEDTAVYYCAAESCSPQAWFDYWGQGTQVTVSS	high polyreactivity
QVQLVESAARLVQAGASLPLSCPASGRIFYTNAMGCYRQAPGKERELVAVMSWGGDTTYYADSVKGRFTISRDNATNTVYLQMNSLKPEDSAVYYCNAYSGPTYEIYDSWGLGTQVTVSS	low polyreactivity
QVQLVESGGGLVQAGGSLRLSCAASGSSFRVYAMGWSRQAPGKERELVASISRRGGSTYYADSVKGRFTISRDNAKTTVYIQMNSLKPEDTAVYYCNVPYYSFRDVSSYYSGQGTQVTVSS	high polyreactivity
